Fewer inactive variants are shown than the library holds.
Key:
biotinyl-Met-oxazolone = assay: self-aminoacylation, catalytic enhancement (BMO) (fold over background); higher = more active; k-Seq, kA / k0A0; sequences stand for … in GGGAAUGGAUCCACAUCUACGAAUUC…UUCACUGCAGACUUGACGAAGCUG
Method in brief: (§1)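 Mutagenized RNA pools with a 21-nt variable region (0.43 μM) reacted with each biotinyl-aminoacyl-oxazolone at 2–1250 μM. Reactions ran in 50 μL HEPES/NaCl/KCl/MgCl2/CaCl2 buffer with 5% acetonitrile, pH 6.9–7.0, for 90 minutes at room temperature. Streptavidin-captured RNA was quantified by triplicate qPCR and Illumina sequencing, and per-sequence fraction reacted was fit to a pseudo-first-order model with 1000 bootstraps. Catalytic enhancement is median kA divided by the uncatalyzed rate, the low-activity peak of a bimodal Gaussian fit.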

biotinyl-Trp-oxazolone = assay: self-aminoacylation, catalytic enhancement (BWO) (fold over background); higher = more active; k-Seq, kA / k0A0; sequences stand for … in GGGAAUGGAUCCACAUCUACGAAUUC…UUCACUGCAGACUUGACGAAGCUG
Method in brief: as §1

biotinyl-Ile-oxazolone = assay: self-aminoacylation, catalytic enhancement (BIO) (fold over background); higher = more active; k-Seq, kA / k0A0; sequences stand for … in GGGAAUGGAUCCACAUCUACGAAUUC…UUCACUGCAGACUUGACGAAGCUG
Method in brief: as §1

biotinyl-Phe-oxazolone = assay: self-aminoacylation, catalytic enhancement (BFO) (fold over background); higher = more active; k-Seq, kA / k0A0; sequences stand for … in GGGAAUGGAUCCACAUCUACGAAUUC…UUCACUGCAGACUUGACGAAGCUG
Method in brief: as §1

biotinyl-Val-oxazolone = assay: self-aminoacylation, catalytic enhancement (BVO) (fold over background); higher = more active; k-Seq, kA / k0A0; sequences stand for … in GGGAAUGGAUCCACAUCUACGAAUUC…UUCACUGCAGACUUGACGAAGCUG
Method in brief: as §1

biotinyl-Leu-oxazolone = assay: self-aminoacylation, catalytic enhancement (BLO) (fold over background); higher = more active; k-Seq, kA / k0A0; sequences stand for … in GGGAAUGGAUCCACAUCUACGAAUUC…UUCACUGCAGACUUGACGAAGCUG
Method in brief: as §1

Sequence	self-aminoacylation (biotinyl-Met-oxazolone)	self-aminoacylation (biotinyl-Trp-oxazolone)	self-aminoacylation (biotinyl-Ile-oxazolone)	self-aminoacylation (biotinyl-Phe-oxazolone)	self-aminoacylation (biotinyl-Val-oxazolone)	self-aminoacylation (biotinyl-Leu-oxazolone)
GAGUUUGCUAAUUGUCGCAAG [Fam3.1 aminoacylation ribozyme variant]	1.34	2.06	1.36	2.2	1.24	1.53
AUCCACCUAGGUCAUCUGGUG [Fam2.2 aminoacylation ribozyme variant]	2.77	2.77	2.26	26.4	2.28	3.74
AAGUUUGCUAAUAGUUGCACG [Fam3.1 aminoacylation ribozyme variant]	1.31	1.75	1.11	1.38	1.14	1.1
GUUUACCUAGGUCAUCGGGUG [Fam2.2 aminoacylation ribozyme variant]	29	23.9	16.2	201	14.1	39.7
GUACUUCAGACAAUCGGUCUG [Fam1A.1 aminoacylation ribozyme variant]	1.2	1.56	1.22	4.98	1.06	1.32
AGUCACCUAGGUCAUCGGGUA [Fam2.2 aminoacylation ribozyme variant]	11.6	9.54	6.85	60	6.5	12.7
AUUCACCUAGCUCUUCGGGUG [Fam2.2 aminoacylation ribozyme variant]	2.25	2.74	2.08	10.9	2.42	2.62
AUUCACCUGGUUCAUCGGGUG [Fam2.2 aminoacylation ribozyme variant]	3.08	3.62	2.42	15.2	3.1	3.19
AUUAACCUGAUCAUCGAGUGA [Fam2.1 aminoacylation ribozyme variant]	9.97	13.7	4.54	41.3	4.67	10.2
AGGUUUGAUAAUAGUCGCAAG [Fam3.1 aminoacylation ribozyme variant]	1.57	1.8	1.55	3.51	1.54	1.67
AUUACCCUGGUAAACGAGUGA [Fam2.1 aminoacylation ribozyme variant]	19.8	20.1	7.26	150	7.77	19.1
CCACACUUCAAGCAAGCGGUA [Fam1B.1 aminoacylation ribozyme variant]	1.02	0.921	1.39	0.741	1.2	1.13
CCACACUUCAAUCAAGCGGUC [Fam1B.1 aminoacylation ribozyme variant]	0.634	0.769	0.709	0.972	0.811	0.694
AUUCCCCUGGUCAUCGAGUAA [Fam2.1 aminoacylation ribozyme variant]	1.69	1.47	1.55	1.42	1.7	1.35
AUUCACCUGGGUCAUGGGGUG [Fam2.2 aminoacylation ribozyme variant]	6.65	6.16	4.05	51.6	4.9	9.15
ACUACCCUGGUCGUCGAGUGA [Fam2.1 aminoacylation ribozyme variant]	1.49	0.701	1.17	6.66	1.19	1.95
CAACUUCUAACAAUCGGUCUG [Fam1A.1 aminoacylation ribozyme variant]	0.722	1.05	0.904	1.44	0.917	0.743
AUUACCCUGGUCUUCGAAUGA [Fam2.1 aminoacylation ribozyme variant]	0.746	0.642	0.649	0.408	0.728	0.694
CCACACGUCAUGCAAUCGGUC [Fam1B.1 aminoacylation ribozyme variant]	1.26	1.61	1.18	0.974	1.34	0.972
CCACUUCUAACAAUCGGUCUG [Fam1A.1 aminoacylation ribozyme variant]	0.758	0.68	0.858	0.834	0.897	0.875
AGUCACCUAGGUCAUCGGAUG [Fam2.2 aminoacylation ribozyme variant]	1.21	0.786	1.2	1.24	1.04	1.18
CCGCACUUCAAGCAAUCAGUC [Fam1B.1 aminoacylation ribozyme variant]	0.798	7.12	0.854	18.8	0.859	0.943
AAGUUUGAUGAUAGUCGCAAG [Fam3.1 aminoacylation ribozyme variant]	1.49	1.4	1.78	2.4	1.49	1.63
AUUACCCUGGUCAUCGAGCGA [Fam2.1 aminoacylation ribozyme variant]	3.51	3.33	2.15	3.41	2.18	3.7
AAGUUUGCUUAUAGACGCAAG [Fam3.1 aminoacylation ribozyme variant]	0.559	0.629	0.591	0.84	0.585	0.495
ACUCACCUAGGUCAUAGGGUG [Fam2.2 aminoacylation ribozyme variant]	1.57	1.58	1.31	1.46	1.36	1.39

Sequence	self-aminoacylation (biotinyl-Met-oxazolone)	self-aminoacylation (biotinyl-Trp-oxazolone)	self-aminoacylation (biotinyl-Ile-oxazolone)	self-aminoacylation (biotinyl-Phe-oxazolone)	self-aminoacylation (biotinyl-Val-oxazolone)	self-aminoacylation (biotinyl-Leu-oxazolone)
CCACACUUCAAGCAAUCCAUC [Fam1B.1 aminoacylation ribozyme variant]	0.433	0.529	0.553	0.752	0.774	0.446
CUACUUGAAACAAUCGGUCUC [Fam1A.1 aminoacylation ribozyme variant]	0.827	0.561	0.789	0.658	0.688	0.657
AAGUUUGCUAAAAGUUGCAAG [Fam3.1 aminoacylation ribozyme variant]	1.07	0.711	0.983	1.18	0.781	0.968
AAGUUUUCUAAUAGUCCCAAG [Fam3.1 aminoacylation ribozyme variant]	0.891	1.45	1.02	2.7	1.08	0.929
AUUUACGUAGGUCAUCGGGUG [Fam2.2 aminoacylation ribozyme variant]	3.99	3.64	2.88	25.2	3.38	3.68
AUUCACCUAGGUCAUCUGUUG [Fam2.2 aminoacylation ribozyme variant]	0.564	0.373	0.795	0.429	0.693	0.618
AUUACCGUGGUCAUGGAGUGA [Fam2.1 aminoacylation ribozyme variant]	3.21	3.69	2.27	12.2	2.37	3.43
AAGUGUGCUAAGAGUCGCAAG [Fam3.1 aminoacylation ribozyme variant]	1.15	2.15	1.11	5.24	0.87	1.13
AUUCACCUAUGUCAUCGAGUG [Fam2.2 aminoacylation ribozyme variant]	4.64	4.95	3.35	17.2	2.98	5.42
AAUUUUGCUAAUAGGCGCAAG [Fam3.1 aminoacylation ribozyme variant]	1.43	1.71	1.57	1.5	1.28	1.12
CCACACUUCAAAGAAUCGGUC [Fam1B.1 aminoacylation ribozyme variant]	0.888	9.57	0.988	12.1	0.955	1.17
UUUCACCUAGGUCAUCGGGCG [Fam2.2 aminoacylation ribozyme variant]	4.77	4.57	3.06	4.77	3.19	5.21
ACUACCCUGGUCAUCGUGUGA [Fam2.1 aminoacylation ribozyme variant]	4.14	3.83	1.58	24.4	2.33	3.39
CUACUUGAAACAAUCGGACUG [Fam1A.1 aminoacylation ribozyme variant]	0.782	0.651	0.922	0.551	0.786	0.944
UGACUUCAAACAAUCGGUCUG [Fam1A.1 aminoacylation ribozyme variant]	2.05	39.2	1.73	96.8	1.73	2.53
CUACUUCACACAAUCGAUCUG [Fam1A.1 aminoacylation ribozyme variant]	0.686	0.691	0.888	0.726	0.677	0.784
CUACUUCAAACAAUCCGUCUU [Fam1A.1 aminoacylation ribozyme variant]	0.764	0.691	0.814	0.785	0.862	0.802
CCACACUGCAAGCGAUCGGUC [Fam1B.1 aminoacylation ribozyme variant]	1.19	1.43	1.27	1.13	1.57	1.15
UCACACUUCCAGCAAUCGGUC [Fam1B.1 aminoacylation ribozyme variant]	1.14	0.854	1.19	1.01	1.24	1.02
CGACACUUCAAGCAAUCUGUC [Fam1B.1 aminoacylation ribozyme variant]	0.52	0.416	0.554	0.656	0.51	0.411
CCCCACUUCAAGCAAUGGGUC [Fam1B.1 aminoacylation ribozyme variant]	0.959	1.96	1.32	1.88	1.67	0.835
AGUCACCUUGGUCAUCGGGUG [Fam2.2 aminoacylation ribozyme variant]	5.4	5.71	4.89	49.8	4.85	6.96
AAGUUUGCUUAUAGUCGCAAU [Fam3.1 aminoacylation ribozyme variant]	1.41	1.03	1.1	1.74	1.22	1.27
AUUACCCUAGUCAUCGAGUCA [Fam2.1 aminoacylation ribozyme variant]	0.631	0.546	0.724	0.47	0.893	0.674
AGUACCAUGGUCAUCGAGUGA [Fam2.1 aminoacylation ribozyme variant]	6.66	8.32	4.22	29.9	4.22	7.11

Source: the supplement of paper PMC9233669
